# Laboratory results reported in IntAct's records for PubMed 22826121.
# B1: Protein KASH5 (Mus musculus), Q80VJ8 (parent)
# chain: MHSILRSSLSSREALRMRQLKGLRKERPGRHPLGVRLRAIWTSFLFPNPPHSGGKLRASTAAVEEHQEWSMDLPEGQAGGPTAQMYLWEQPEEASSRPLLSLEEQILNSTFEACDPHKTGTVTVAHLLAYLEAVTGQGPQDVRLQTLARSLDPYGEGAGATVELDTFLVVMRDWIAACQLQGGLERAEETAYEGALASPHLPSVCPEAEESANLESFGGEDPRPEGPATAELLSNLEDLELSNRRLAGENAKLQRSVETAEEGSARLGEEITALRKQLRSTQQALQVAKALDEELEDLKTLAKSLEEQNRSLMAQARHTEKEQQHLAAEVETLQEENEKLLAERDGVKRRSEELATEKDALKRQLCECERLICQREAVLSERTRHAESLARTLEEYRTTTQELRQEISNLEEQLSQSQEGPEELLEGAEAGRVGWIMALPPSLDLEIQAIRQEQDVASAGLSSPLYGVWQWEEVEPEPEPEPEPEPEPEPQEVEFPSEDPARQQTDLQREPVRALEGSRAPCLRLSRSQEEEEEEEESWVLADPSSPLGTYHHKLAPGSSRESCHIVPEMHQALMPVVRDLVPVERSRTQHCLHPQHSPGIRISQHPLVPTPVLGLLLLLLLSILLFSQSPPPTWPHLQLYYLQPPPV
# partner: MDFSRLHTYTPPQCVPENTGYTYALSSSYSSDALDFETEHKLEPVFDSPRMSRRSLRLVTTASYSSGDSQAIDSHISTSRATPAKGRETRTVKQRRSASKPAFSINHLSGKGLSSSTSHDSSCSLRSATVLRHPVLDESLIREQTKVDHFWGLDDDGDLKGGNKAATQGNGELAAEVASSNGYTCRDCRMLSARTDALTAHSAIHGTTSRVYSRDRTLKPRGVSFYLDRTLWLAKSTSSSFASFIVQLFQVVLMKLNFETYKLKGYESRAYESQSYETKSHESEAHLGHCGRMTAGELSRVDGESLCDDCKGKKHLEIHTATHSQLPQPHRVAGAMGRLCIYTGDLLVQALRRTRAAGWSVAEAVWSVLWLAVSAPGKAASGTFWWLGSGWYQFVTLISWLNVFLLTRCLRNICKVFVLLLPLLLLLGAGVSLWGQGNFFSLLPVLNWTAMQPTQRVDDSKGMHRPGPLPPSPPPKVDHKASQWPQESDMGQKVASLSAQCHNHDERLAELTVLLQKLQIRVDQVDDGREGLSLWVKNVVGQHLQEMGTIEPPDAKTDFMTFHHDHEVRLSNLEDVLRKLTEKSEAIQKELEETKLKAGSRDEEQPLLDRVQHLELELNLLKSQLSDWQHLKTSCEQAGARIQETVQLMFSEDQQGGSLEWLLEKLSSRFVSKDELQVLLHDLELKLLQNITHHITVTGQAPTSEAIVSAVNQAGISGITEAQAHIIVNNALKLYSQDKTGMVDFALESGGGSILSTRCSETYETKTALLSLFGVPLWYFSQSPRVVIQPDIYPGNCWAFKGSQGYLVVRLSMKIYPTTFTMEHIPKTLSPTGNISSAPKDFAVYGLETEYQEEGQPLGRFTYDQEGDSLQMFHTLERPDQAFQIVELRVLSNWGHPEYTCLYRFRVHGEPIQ
# B2: Protein KASH5 (Mus musculus), Q80VJ8 (parent)
# chain: B1 chain
# partner: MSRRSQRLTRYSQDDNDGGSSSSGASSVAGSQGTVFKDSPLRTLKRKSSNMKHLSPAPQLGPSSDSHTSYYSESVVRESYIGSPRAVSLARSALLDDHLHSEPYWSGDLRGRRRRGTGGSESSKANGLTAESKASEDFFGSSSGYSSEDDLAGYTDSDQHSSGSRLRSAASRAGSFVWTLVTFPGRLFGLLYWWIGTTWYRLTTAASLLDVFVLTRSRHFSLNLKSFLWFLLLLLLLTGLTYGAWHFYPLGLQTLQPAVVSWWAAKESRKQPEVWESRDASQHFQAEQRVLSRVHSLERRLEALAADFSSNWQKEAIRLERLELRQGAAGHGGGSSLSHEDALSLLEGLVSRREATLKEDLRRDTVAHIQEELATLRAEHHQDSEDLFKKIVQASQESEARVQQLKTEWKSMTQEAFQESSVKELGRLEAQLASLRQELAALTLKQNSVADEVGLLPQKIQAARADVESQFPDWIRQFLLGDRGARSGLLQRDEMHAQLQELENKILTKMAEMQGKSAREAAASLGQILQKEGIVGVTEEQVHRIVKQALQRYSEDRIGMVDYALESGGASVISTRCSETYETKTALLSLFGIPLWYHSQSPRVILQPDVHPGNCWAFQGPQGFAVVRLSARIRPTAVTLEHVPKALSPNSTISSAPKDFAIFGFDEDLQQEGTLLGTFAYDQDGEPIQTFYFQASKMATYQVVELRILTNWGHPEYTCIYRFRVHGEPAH
# B3: Protein KASH5 (Mus musculus), Q80VJ8 (parent)
# chain: B1 chain
# Variants of: B1
# Details: with sun1_mouse Sun1, Q9D666
row,effect of a mutation on the interaction,Variant
1,disrupting interaction strength,P645A;P646A;P647A

# Variants of: B2
# Details: with sun2_mouse Sun2, Q8BJS4
row,effect of a mutation on the interaction,Variant
1,disrupting interaction strength,P645A;P646A;P647A

# Variants of: B3
# Details: with sun1_human SUN1, O94901
# Chain of sun1_human SUN1, O94901 (O94901 whole entry): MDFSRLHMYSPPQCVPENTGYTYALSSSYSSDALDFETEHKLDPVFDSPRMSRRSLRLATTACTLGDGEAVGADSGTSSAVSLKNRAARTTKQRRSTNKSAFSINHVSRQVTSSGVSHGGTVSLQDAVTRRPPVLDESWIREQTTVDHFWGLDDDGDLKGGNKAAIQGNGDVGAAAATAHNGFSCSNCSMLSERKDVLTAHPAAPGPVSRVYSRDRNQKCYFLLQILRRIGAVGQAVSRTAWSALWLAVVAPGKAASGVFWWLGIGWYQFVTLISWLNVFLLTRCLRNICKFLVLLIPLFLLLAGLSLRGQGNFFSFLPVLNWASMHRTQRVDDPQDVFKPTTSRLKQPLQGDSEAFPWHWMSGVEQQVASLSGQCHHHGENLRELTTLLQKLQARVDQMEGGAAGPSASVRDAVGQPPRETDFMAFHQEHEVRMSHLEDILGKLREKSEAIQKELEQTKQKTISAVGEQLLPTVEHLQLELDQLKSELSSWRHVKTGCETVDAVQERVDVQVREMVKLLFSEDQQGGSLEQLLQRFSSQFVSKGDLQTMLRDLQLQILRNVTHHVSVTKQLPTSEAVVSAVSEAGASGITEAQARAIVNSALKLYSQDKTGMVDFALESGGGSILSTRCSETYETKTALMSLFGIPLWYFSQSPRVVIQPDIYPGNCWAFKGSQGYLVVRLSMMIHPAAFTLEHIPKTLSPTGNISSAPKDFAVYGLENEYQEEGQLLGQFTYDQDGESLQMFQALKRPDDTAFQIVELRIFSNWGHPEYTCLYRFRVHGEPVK
row,effect of a mutation on the interaction,Variant
1,disrupting interaction,P645A;P646A;P647A
